Here are results for one molecule from patent US7838231 (REGENTS OF THE UNIVERSITY OF MICHIGAN, dated 2010).

Experiment [1] deals with T1, NPHP4, human full length, yeast two-hybrid prey (human, UniProt O75161 1-1426).
T1 construct: also called nephroretinin; nephrocystin-4
T1 sequence: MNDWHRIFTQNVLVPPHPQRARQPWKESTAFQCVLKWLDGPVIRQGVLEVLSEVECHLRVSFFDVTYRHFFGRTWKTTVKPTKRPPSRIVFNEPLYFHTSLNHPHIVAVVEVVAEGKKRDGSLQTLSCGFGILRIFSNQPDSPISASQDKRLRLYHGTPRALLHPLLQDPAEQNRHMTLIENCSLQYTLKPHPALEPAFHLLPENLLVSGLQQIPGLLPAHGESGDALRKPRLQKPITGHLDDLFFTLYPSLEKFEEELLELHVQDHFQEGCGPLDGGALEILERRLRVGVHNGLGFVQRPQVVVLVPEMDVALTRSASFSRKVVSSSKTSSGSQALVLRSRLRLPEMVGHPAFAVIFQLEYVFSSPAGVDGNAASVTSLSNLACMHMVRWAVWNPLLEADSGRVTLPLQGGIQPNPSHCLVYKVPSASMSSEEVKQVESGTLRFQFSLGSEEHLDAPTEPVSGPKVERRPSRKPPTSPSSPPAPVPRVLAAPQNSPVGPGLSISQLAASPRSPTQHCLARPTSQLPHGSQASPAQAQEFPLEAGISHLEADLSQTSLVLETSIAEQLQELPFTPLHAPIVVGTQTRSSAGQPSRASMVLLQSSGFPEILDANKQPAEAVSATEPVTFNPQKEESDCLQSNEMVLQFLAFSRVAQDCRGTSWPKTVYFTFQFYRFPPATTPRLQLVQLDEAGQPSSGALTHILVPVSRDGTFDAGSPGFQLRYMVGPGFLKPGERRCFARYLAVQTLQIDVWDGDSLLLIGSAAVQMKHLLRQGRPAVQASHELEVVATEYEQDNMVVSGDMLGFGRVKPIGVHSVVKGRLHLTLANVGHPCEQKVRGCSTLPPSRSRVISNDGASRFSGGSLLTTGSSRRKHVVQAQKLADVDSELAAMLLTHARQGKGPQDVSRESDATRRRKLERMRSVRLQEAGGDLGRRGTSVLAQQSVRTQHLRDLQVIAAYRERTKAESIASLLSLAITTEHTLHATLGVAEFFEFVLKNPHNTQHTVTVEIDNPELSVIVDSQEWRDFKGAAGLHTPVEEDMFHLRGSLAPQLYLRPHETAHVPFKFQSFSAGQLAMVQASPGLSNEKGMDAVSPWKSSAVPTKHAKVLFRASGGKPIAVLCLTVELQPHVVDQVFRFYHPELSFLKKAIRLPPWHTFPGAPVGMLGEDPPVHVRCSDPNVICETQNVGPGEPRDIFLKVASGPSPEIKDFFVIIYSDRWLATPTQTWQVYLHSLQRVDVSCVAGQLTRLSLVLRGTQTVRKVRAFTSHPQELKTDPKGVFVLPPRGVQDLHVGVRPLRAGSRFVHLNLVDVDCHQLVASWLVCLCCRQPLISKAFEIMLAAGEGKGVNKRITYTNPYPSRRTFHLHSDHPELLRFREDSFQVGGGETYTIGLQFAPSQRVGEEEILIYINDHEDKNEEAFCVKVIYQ
The experiment is described as follows: direct yeast two-hybrid assay.

Experiment [2] addresses T2, RPGR (non-ORF15 containing isoform), human full length, yeast two-hybrid prey (human, UniProt Q92834-2 1-815).
T2 construct: also called non-ORF15 containing RPGR isoform
T2 sequence (looked up): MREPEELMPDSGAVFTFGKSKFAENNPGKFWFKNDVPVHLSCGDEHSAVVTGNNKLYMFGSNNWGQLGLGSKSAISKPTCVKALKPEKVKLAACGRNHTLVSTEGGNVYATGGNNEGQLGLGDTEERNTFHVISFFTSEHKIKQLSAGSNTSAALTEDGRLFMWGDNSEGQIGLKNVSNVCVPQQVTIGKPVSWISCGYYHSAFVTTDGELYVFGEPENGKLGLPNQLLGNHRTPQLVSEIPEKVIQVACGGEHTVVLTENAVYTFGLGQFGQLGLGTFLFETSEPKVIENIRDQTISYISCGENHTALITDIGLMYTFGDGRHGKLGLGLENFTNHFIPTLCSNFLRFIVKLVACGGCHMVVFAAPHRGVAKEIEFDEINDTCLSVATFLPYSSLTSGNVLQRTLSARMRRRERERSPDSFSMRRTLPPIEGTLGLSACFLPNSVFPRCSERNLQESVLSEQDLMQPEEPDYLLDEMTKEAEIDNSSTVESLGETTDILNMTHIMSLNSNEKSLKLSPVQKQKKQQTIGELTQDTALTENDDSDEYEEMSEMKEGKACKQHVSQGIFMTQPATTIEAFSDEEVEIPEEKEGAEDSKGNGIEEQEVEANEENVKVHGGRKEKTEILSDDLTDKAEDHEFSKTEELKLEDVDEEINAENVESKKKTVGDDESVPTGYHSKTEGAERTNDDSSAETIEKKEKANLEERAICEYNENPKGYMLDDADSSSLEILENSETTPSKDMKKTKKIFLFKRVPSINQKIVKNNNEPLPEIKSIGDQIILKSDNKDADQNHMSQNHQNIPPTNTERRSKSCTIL
The experiment can be described thus: direct yeast two-hybrid assay.

Experiment [3] concerns the target T3, KIF3A, yeast two-hybrid construct (UniProt Q9Y496 1-699).
T3 construct: The construct is not described in the methods; not shown: GAL4 domain of the two-hybrid vector; not described for this construct
The experiment can be described thus: direct yeast two-hybrid assay.

The target in experiment [4] is calmodulin (CALM2), human full length, yeast two-hybrid fusion (human, UniProt P0DP24 1-149). The experiment can be described thus: yeast two-hybrid screen of a human fetal brain expression library, NPHP5 as bait.

T3 sequence (Q9Y496 whole entry, the tested form may be a part): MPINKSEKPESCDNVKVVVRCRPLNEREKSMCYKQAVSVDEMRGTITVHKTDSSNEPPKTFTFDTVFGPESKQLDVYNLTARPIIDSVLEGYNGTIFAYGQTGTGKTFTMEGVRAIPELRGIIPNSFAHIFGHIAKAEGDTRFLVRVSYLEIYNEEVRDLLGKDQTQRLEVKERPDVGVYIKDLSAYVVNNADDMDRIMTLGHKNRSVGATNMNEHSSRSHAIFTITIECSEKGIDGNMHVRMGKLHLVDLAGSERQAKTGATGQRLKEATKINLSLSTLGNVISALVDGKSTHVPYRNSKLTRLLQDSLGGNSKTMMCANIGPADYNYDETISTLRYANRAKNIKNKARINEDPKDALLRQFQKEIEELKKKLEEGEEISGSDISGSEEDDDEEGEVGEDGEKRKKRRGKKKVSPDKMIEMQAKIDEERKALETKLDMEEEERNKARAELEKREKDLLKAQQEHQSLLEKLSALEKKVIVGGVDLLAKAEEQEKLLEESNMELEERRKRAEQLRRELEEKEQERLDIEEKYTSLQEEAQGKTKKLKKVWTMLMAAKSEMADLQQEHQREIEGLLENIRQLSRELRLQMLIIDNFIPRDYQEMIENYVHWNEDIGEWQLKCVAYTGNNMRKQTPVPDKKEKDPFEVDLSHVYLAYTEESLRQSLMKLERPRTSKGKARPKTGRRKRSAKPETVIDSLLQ

B1: full-length human nephrocystin-5 (NPHP5), yeast two-hybrid fusion (other, not shown: small tags and cut ends)
chain: MKPTGTDPRILSIAAEVAKSPEQNVPVILLKLKEIINITPLGSSELKKIKQDIYCYDLIQYCLLVLSQDYSRIQGGWTTISQLTQILSHCCVGLEPGEDAEEFYNELLPSAAENFLVLGRQLQTCFINAAKAEEKDELLHFFQIVTDSLFWLLGGHVELIQNVLQSDHFLHLLQADNVQIGSAVMMMLQNILQINSGDLLRIGRKALYSILDEVIFKLFSTPSPVIRSTATKLLLLMAESHQEILILLRQSTCYKGLRRLLSKQETGTEFSQELRQLVGLLSPMVYQEVEEQKLHQAACLIQAYWKGFQTRKRLKKLPSAVIALQRSFRSKRSKMLLEINRQKEEEDLKLQLQLQRQRAMRLSRELQLSMLEIVHPGQVEKHYREMEEKSALNIQKHWRGYRERKNFHQQRQSLIEYKAAVTLQRAALKFLAKCRKKKKLFAPWRGLQELTDARRVELKKRVDDYVRRHLGSPMSDVVSRELHAQAQERLQHYFMGRALEERAQQHREALIAQISTNVEQLMKAPSLKEAEGKEPELFLSRSRPVAAKAKQAHLTTLKHIQAPWWKKLGEESGDEIDVPKDELSIELENLFIGGTKPP
notes: Full-length NPHP5 cDNA (598 amino acid residues) fused to a GAL4 domain; also called KIAA0036
Turning to B1, the binding result is given as “no binding” in experiment [1], “no binding” in experiment [2], “no binding” in experiment [3] and “binds” in experiment [4].
